The text below walks through data of the supplement of paper PMC10567573.

B1: KCNA4 (parent)
chain: YQSGGRLKRPVNVPFDIFTEEVKF
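Also: lentivirally expressed fusions sorted by FACS into six bins by GFP to DsRed ratio, PSI derived from sequencing read proportions per bin multiplied by bin number.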

This data set covers variants of B1. The data set can be described thus: protein stability index of a GFP-peptide fusion (GPS, HEK-293T) (PSI 1-6); higher = more stable. As to conditions: c terminus: a fixed tail appended.
Consider YQSGGRLKRPVNVPFDLFTEEVKF [I17L], for which the protein stability index turned out to be 2.36.

YQSGGRLKRPVNVPFDQFTEEVKF [I17Q]: the protein stability index was determined as 1.72.

In the case of YQSGGRLKRPHNVPFDIFTEEVKF [V11H], the protein stability index stood at 1.69.

With YQSGGRLKRPQNVPFDIFTEEVKF [V11Q], the protein stability index is 2.36.

Regarding YQSGGRLKRPENVPFDIFTEEVKF [V11E], the protein stability index was 1.65.

Take YQSGGRLKRPYNVPFDIFTEEVKF [V11Y]: the protein stability index worked out at 2.06.

Consider YQSGGRLKRPRNVPFDIFTEEVKF [V11R], for which the protein stability index turned out to be 1.81.

Regarding YQSGGRLKRPMNVPFDIFTEEVKF [V11M], the protein stability index amounted to 2.32.

For YQSGGRLKRPGNVPFDIFTEEVKF [V11G], the protein stability index is 1.31.

In the case of YQSGGRLKRPVNVPFDIFTEEVEF [K23E], the protein stability index came to 1.05.

Regarding YQSGGRLKRPVNVPFDIFTEEVYF [K23Y], the protein stability index turned out to be 1.52.

On to YQSGGRLKRPVNVPFDIFTEEVMF [K23M], for which the protein stability index was 2.17.

Take YQSGGRLKRPVNVPFDIFTEEVHF [K23H]: the protein stability index was found to be 1.71.

Take YQSGGRLKRPVNVPFDIFTEEVRF [K23R]: the protein stability index is 1.96.

For the variant YQSGGRLKRPVNVPFDIFTEEVLF [K23L], the protein stability index came out at 2.53.

On to YQSGGRLKRPVNVPFDIFTEEVIF [K23I], for which the protein stability index stood at 2.65.

Turning to YQSGGRLKRPVNVPFDIFTEEAKF [V22A], the protein stability index was determined as 1.58.

On to YQSGGRLKRPVNVPFDIFTEECKF [V22C], for which the protein stability index amounted to 1.54.

Take YQSGGRLKRPVNVPFDIFTEEPKF [V22P]: the protein stability index turned out to be 1.54.

Regarding YQSGGRLKRPVNVPFDIFTEEEKF [V22E], the protein stability index is 2.77.

As for YQSGGRLKRPVNVPFDIFTEERKF [V22R], the protein stability index worked out at 1.48.

Regarding YQSGGRLKRPVNVPFDIFTEELKF [V22L], the protein stability index was determined as 1.99.

For the variant YQSGGRLKRPVNVPFDIFTEEIKF [V22I], the protein stability index came out at 1.38.

With YQSGGRLKRPVNVPFDIFTEEKKF [V22K], the protein stability index is 1.59.

With YQSGGRLKRPVNVPFDIFTEEHKF [V22H], the protein stability index stood at 1.86.

Regarding YQSGGRLKRPVNVPFDIFTEEFKF [V22F], the protein stability index was determined as 2.06.

Regarding YQSGGRLWRPVNVPFDIFTEEVKF [K8W], the protein stability index turned out to be 5.95.

With YQSGGRLERPVNVPFDIFTEEVKF [K8E], the protein stability index was determined as 1.98.

Turning to YQSGGRLRRPVNVPFDIFTEEVKF [K8R], the protein stability index stood at 2.67.

In the case of YQSGGRLSRPVNVPFDIFTEEVKF [K8S], the protein stability index stood at 1.93.

For the variant YQSGGRLQRPVNVPFDIFTEEVKF [K8Q], the protein stability index is 2.56.

As for YQSGGRLPRPVNVPFDIFTEEVKF [K8P], the protein stability index is 1.7.

YQSGGRLVRPVNVPFDIFTEEVKF [K8V]: the protein stability index was found to be 1.53.

In the case of YQSGGRLKRPVNVPFDIFTEVVKF [E21V], the protein stability index was determined as 1.81.

Take YQSGGRLKRPVNVPFDIFTEKVKF [E21K]: the protein stability index came to 1.17.

With YQSGGRLKRPVNVPFDIFTETVKF [E21T], the protein stability index was determined as 1.81.

As to YQSGGRLKRPVNVPFDIFTEPVKF [E21P], the protein stability index was found to be 2.13.

In the case of YQSGGRLKRPVNVPFDIFTEGVKF [E21G], the protein stability index is 2.36.

With YQSGGRLKRPVNVPFDIFTEYVKF [E21Y], the protein stability index is 2.61.

For the variant YQSGGRLKRPVNVPFDIFTEIVKF [E21I], the protein stability index stood at 2.24.

Take YQSGGRLKRPVNVPFDIFTENVKF [E21N]: the protein stability index came to 2.63.

With YQSGGRLKRPVNVPFDIFTEAVKF [E21A], the protein stability index was determined as 1.89.

Regarding YQSGGRLKRPVNVPFDIFTEMVKF [E21M], the protein stability index is 1.06.

For the variant YQSGMRLKRPVNVPFDIFTEEVKF [G5M], the protein stability index was determined as 1.77.

Take YQSGVRLKRPVNVPFDIFTEEVKF [G5V]: the protein stability index worked out at 1.63.

As for YQSGHRLKRPVNVPFDIFTEEVKF [G5H], the protein stability index came out at 3.03.

Consider YQSGDRLKRPVNVPFDIFTEEVKF [G5D], for which the protein stability index worked out at 2.11.

YQSGPRLKRPVNVPFDIFTEEVKF [G5P]: the protein stability index turned out to be 2.53.

With YQSGNRLKRPVNVPFDIFTEEVKF [G5N], the protein stability index worked out at 1.94.

Turning to YQSGQRLKRPVNVPFDIFTEEVKF [G5Q], the protein stability index turned out to be 2.08.

Regarding YQSGYRLKRPVNVPFDIFTEEVKF [G5Y], the protein stability index was found to be 1.26.

For YQSGGRLKRPVNVCFDIFTEEVKF [P14C], the protein stability index stood at 2.19.

For YQSGGRLKRPVNVGFDIFTEEVKF [P14G], the protein stability index amounted to 2.98.

On to YQSGGRLKRPVNVLFDIFTEEVKF [P14L], for which the protein stability index worked out at 1.91.

Consider YQSGGRLKRPVNVAFDIFTEEVKF [P14A], for which the protein stability index was determined as 1.37.

As for YQSGGRLKRPVNVHFDIFTEEVKF [P14H], the protein stability index came out at 1.86.

Regarding YQSGGRLKRPVNVVFDIFTEEVKF [P14V], the protein stability index amounted to 1.56.

As to YQSGGRLKRPVNVDFDIFTEEVKF [P14D], the protein stability index stood at 2.28.

Consider YQSGGRLKRPVNVYFDIFTEEVKF [P14Y], for which the protein stability index is 2.7.

In the case of YQSNGRLKRPVNVPFDIFTEEVKF [G4N], the protein stability index was 1.73.

For YQSSGRLKRPVNVPFDIFTEEVKF [G4S], the protein stability index was determined as 1.99.

Consider YQSVGRLKRPVNVPFDIFTEEVKF [G4V], for which the protein stability index came to 1.78.

As to YQSKGRLKRPVNVPFDIFTEEVKF [G4K], the protein stability index was determined as 2.12.

With YQSRGRLKRPVNVPFDIFTEEVKF [G4R], the protein stability index worked out at 2.14.

Consider YQSYGRLKRPVNVPFDIFTEEVKF [G4Y], for which the protein stability index was 1.27.

Take YQSEGRLKRPVNVPFDIFTEEVKF [G4E]: the protein stability index stood at 1.99.

On to YQSHGRLKRPVNVPFDIFTEEVKF [G4H], for which the protein stability index stood at 2.33.

Consider YQSWGRLKRPVNVPFDIFTEEVKF [G4W], for which the protein stability index was 2.56.

Regarding YQSGGRLKRPVNVPFHIFTEEVKF [D16H], the protein stability index stood at 1.08.

For YQSGGRLKRPVNVPFCIFTEEVKF [D16C], the protein stability index came to 1.1.

As for YQSGGRLKRPVNVPFAIFTEEVKF [D16A], the protein stability index turned out to be 1.83.

Consider YQSGGRLKRPVNVPFRIFTEEVKF [D16R], for which the protein stability index is 2.48.

As to YQSGGRLKRPVNVPFTIFTEEVKF [D16T], the protein stability index amounted to 1.29.

For YQSGGRLKRPVNVPFYIFTEEVKF [D16Y], the protein stability index came to 2.11.

For the variant YQSGGRLKRPVNVPFMIFTEEVKF [D16M], the protein stability index is 1.54.

In the case of YQSGGREKRPVNVPFDIFTEEVKF [L7E], the protein stability index came to 2.16.

Turning to YQSGGRSKRPVNVPFDIFTEEVKF [L7S], the protein stability index came to 2.29.

YQSGGRRKRPVNVPFDIFTEEVKF [L7R]: the protein stability index was 1.7.

Take YQSGGRQKRPVNVPFDIFTEEVKF [L7Q]: the protein stability index was determined as 1.68.

With YQSGGRTKRPVNVPFDIFTEEVKF [L7T], the protein stability index stood at 2.15.

In the case of YQSGGRVKRPVNVPFDIFTEEVKF [L7V], the protein stability index turned out to be 2.28.

As to YQSGGRAKRPVNVPFDIFTEEVKF [L7A], the protein stability index worked out at 1.71.

With YQSGGRMKRPVNVPFDIFTEEVKF [L7M], the protein stability index was found to be 1.56.

For YQSGGRYKRPVNVPFDIFTEEVKF [L7Y], the protein stability index worked out at 1.86.

As for YQSGGRHKRPVNVPFDIFTEEVKF [L7H], the protein stability index amounted to 1.8.

EQSGGRLKRPVNVPFDIFTEEVKF [Y1E]: the protein stability index was 3.08.

On to SQSGGRLKRPVNVPFDIFTEEVKF [Y1S], for which the protein stability index is 3.

As for HQSGGRLKRPVNVPFDIFTEEVKF [Y1H], the protein stability index is 2.88.

For GQSGGRLKRPVNVPFDIFTEEVKF [Y1G], the protein stability index came to 3.48.

DQSGGRLKRPVNVPFDIFTEEVKF [Y1D]: the protein stability index turned out to be 3.12.

Consider NQSGGRLKRPVNVPFDIFTEEVKF [Y1N], for which the protein stability index is 3.04.

In the case of TQSGGRLKRPVNVPFDIFTEEVKF [Y1T], the protein stability index stood at 2.88.

Consider CQSGGRLKRPVNVPFDIFTEEVKF [Y1C], for which the protein stability index amounted to 2.81.

For the variant IQSGGRLKRPVNVPFDIFTEEVKF [Y1I], the protein stability index stood at 1.93.
